The source of these data is paper PMC6224377 (Frontiers in Immunology, 2018).

Changes are numbered by the printed parent chain.

Experiment [1] deals with T1, hROR2-ECD-Twin-Strep (soluble human ROR2 extracellular domain fused to a Twin-Strep-tag) (Homo sapiens (Human)., UniProt Q01974).
T1 construct: signal peptide in the construct; extracellular domain of human receptor tyrosine kinase-like orphan receptor 2 (ROR2), NP_004551.2, amino acids 1-403; Gene synthesis (GenScript), vector pCB14b; also called hROR2-Twin-Strep; human ROR2-ECD-Twin-Strep; not shown: Twin-Strep-tag, C-terminal, kept
The experiment in a line: ELISA; MaxiSorp plates coated with 2 μg/ml antigen in 100 mM bicarbonate/carbonate buffer; purified monoclonal antibodies from 0.5-2 μg/ml in serial dilutions in PBS-T/1% BSA, 1 h at 37°C; detected with HRP-conjugated F(ab')2 anti-human Fcγ. Particulars: both partners purified.

Experiment [2] addresses T1, hROR2-ECD-Twin-Strep (soluble human …). The experiment in a line: SPR; multi-cycle SPR, Biacore T200; antibodies captured on a CM5 Protein A chip or by Protein G immobilized on a CM5 chip (capture levels 148 to 845 RU); hROR2-ECD-Twin-Strep as analyte, 2-fold serial dilutions 40 nM to 2.5 nM in running buffer. Particulars: both partners purified.

T1 sequence (Q01974 34-403): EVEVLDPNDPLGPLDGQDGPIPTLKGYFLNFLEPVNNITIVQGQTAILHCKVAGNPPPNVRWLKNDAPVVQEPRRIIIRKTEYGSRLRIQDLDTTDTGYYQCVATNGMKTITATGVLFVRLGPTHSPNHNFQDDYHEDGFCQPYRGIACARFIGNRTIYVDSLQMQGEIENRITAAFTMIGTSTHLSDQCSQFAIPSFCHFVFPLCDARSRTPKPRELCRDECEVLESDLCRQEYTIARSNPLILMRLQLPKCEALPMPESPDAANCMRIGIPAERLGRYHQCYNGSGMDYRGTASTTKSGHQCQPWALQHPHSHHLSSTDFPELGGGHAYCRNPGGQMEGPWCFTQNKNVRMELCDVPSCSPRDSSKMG

B1: GK-5E1 (antibody, V domains shown)
VH: QVTLKESGGDVVQPGRSLRLSCAASGFTFRTYGMHWVRQAPGKGPEWVALIWYDGSKKYYADSVKGRFTISRDNSKNTLYLQMNSLRAEDTAVYYCVRVRFGELYFQHWGQGTLVTVSS
VL: not shown
Turning to B1, the binding result in experiment [1] is “binds”.

B2: MK-24C10 (antibody, V domains shown)
VH: QVQLVESGGGVVQPGRSLRLSCAASGFTFSSYGMHWVRQAPGKGLEWVAVIWFDGTNKHYADSVKGRFTISRDNSKNTLYLQMNSLRAEDTAVYYCARDKGEWFGELRYYYYGMDVWGQGTTVTVSS
VL: not shown
As to B2, in experiment [2], the binding result was “binds”.

B3: GK-1E5 (antibody, V domains shown)
VH: EVQLVESGGGVVQPGRSLRLSCAASGFTFRSYGMHWVRQAPGKGLEWVAIIWYDGSKKYYTDSVQGRFTISRDNSKNTLYLQMNSLRAEDTAVYYCARPGIAMTGLDYWGQGTLVTVSS
VL: DIQLTQSPSTLSASVGDRVTITCRASQSISSWLAWYQQKPGKAPKLLIYKASSLESGVPSRFSGSGSGTEFTLTISSLQPDDFATYYCQQYNNYWTFGQGTKVEIK
As for B3, in experiment [1], the binding result is on record as “binds”.

B4: GK-2G8 (antibody, V domains shown)
VH: B3 VH with E1Q, V5Q, Q65K, I101V, Y108L
VL: B3 VL with D1E, Q3V, L4M, E104D
For the molecule B4, in experiment [1], the binding result was “binds”.

B5: MK-3B12 (antibody, V domains shown)
VH: EVQLVESGPGLLKPSETLSLTCAVSGYSISSGYYWGWIRQPPGKGLEWIGSIYQSGSTHYNPSLKSRVTISVDTSKNQFSLKLTSVTAADTAVYYCAREDRAGWYPFDCWGQGTLVTVSS
VL: B3 VL with Q3V, L4M
For B5, in experiment [1], the binding result is “binds”.

B6: GK-5A1 (antibody, V domains shown)
VH: QVQLVESGGGVVQPGRSLRLSCAASGFTFSSYGMYWVRQAPGKGLEWVAVIWNDGSNKYYADSVKGRFTISRDNSKNTLYLQMNSLRAEDTAVYYCAREGSGWYDYYYGMDVWGQGTTVTVSS
VL: B3 VL with D1E, Q3V, N93S, E104D
With B6, the binding result in experiment [1] is listed as “binds”.

B7: MK-7C3 (antibody, V domains shown)
VH: EVQLLETGGGVVQPGRSLRLSCVASGFTFRSHGMHWVRQAPGKGLEWVALIWYDGSKKYYADSVKGRFTISRDNSKNTLYLQMNSLRAEDTAVYYCARVGAGLYLDYWGQGTLVTVSS
VL: AIRMTQSPSTLSASVGDRVTITCRASQTISNWLAWFQQKPGKAPKVLIYKASSLESGVPSRFSGSGSGTEFTLTISSLQPDDFASYYCQQYNSYSYTFGQGTRLEIK
As for B7, the binding result in experiment [2] was “binds”.

B8: GK-22G12 (antibody, V domains shown)
VH: EVQLVESGGGLVQSGGSLRLSCAASGFTFSSQRLSWVRQAPGKGLEWVANIKQDGSEKNYVDSVRGRFTISRDIAKNSLYLQMNSLRAEDTAVYYCARDGYRNGWHIPEDYWGQGTLVTVSS
VL: DIVMTQSPSSLSASVGDRVTITCRASQGISNYLAWYQQKPGKVPKLLIYAASTLQSGVPSRFSGSGSGTDFTLTISSLQPEDVSTYYCQKHNRAPWTFGQGTKLEIK
As to B8, in experiment [2], the binding result is given as “binds”.

B9: GK-5G12 (antibody, V domains shown)
VH: B1 VH with V2I, D10G, P45L, K57N, V97I, R100K, E103D
VL: B8 VL with D1E, M4L, S84A, H91Y, R93S, W96Y
Turning to B9, the binding result in experiment [1] is listed as “binds”.
